These results are taken from US20200299370A1 (UNIVERSITY OF FLORIDA RESEARCH FOUNDATION, published 2020).

Assay [1] concerns the target T1, WT 0N/3R human tau phosphorylated in vitro with p42 MAPK or GSK3β (human, UniProt P10636 2-758, phosphorylated in vitro with p42 MAPK or with GSK3β; T205 (2N/4R numbering) phosphorylated by both, other sites not stated).
T1 construct: recombinant, E. coli BL21; also called phosphorylated tau
Nature of the assay: immunoblot, recombinant 0N/3R tau. The protocol: (§1) WT, S199A, 5202A and T205A 0N/3R tau (mutants numbered according to 2N/4R human tau) were incubated with p42 MAPK or GSK3β or without any kinase as described in “Material and Methods”. […] The mobilities of molecular mass markers are shown on the left.
(§2) Tau proteins (0.2 mg/ml) were phosphorylated with either glycogen synthase kinase 3β (GSK3β; 2.5 U/μl; New England Biolabs, Ipswich, Mass.) or p42 mitogen-activated protein kinase (MAPK; 0.5 U/μl; New England Biolabs, Ipswich, Mass.) in 50 mM Tris, pH 7.5, 10 mM MgCl₂, 0.1 mM EDTA, 2 mM DTT, 0.1% Brij 35, ATP 200 μM for 2 hours at 30° C. followed by heat inactivation at 95° C. for 5 minutes. Samples were diluted in SDS-sample buffer and 100 ng of each tau protein was loaded on a separate lane on SDS-polyacrylamide gels for immunoblot analysis.
(§3) To determine the specificity of these monoclonal antibodies, WT, S199A, 5202A and T205A 0N/3R human tau (mutations numbered according to the sequence of 2N/4R human tau) were phosphorylated with p42 MAPK or GSK3β and immunoblotting analysis was performed (FIG. 3).

Assay [2] addresses T2, WT 0N/3R human tau, non-phosphorylated (incubated without any kinase) (human, UniProt P10636 2-758).
T2 construct: Recombinant, E. coli BL21; also called non-phosphorylated tau
Briefly: immunoblot, recombinant 0N/3R tau. The protocol: as §1, §2, §3
In general terms: Immunoblotting shows a protein as a band on a membrane.

Assay [3] concerns the target T3, phosphopeptide DRSGYSpSPGpSPGpTPGSRSR (p193-211) (human, phosphoserine at residues 7 and 10 and phosphothreonine at 13 (S199, S202, T205 of 2N/4R tau); C residue added at the carboxy-terminus).
T3 construct: Unconjugated synthetic peptide coated on ELISA plates; also called tau peptide p193-211
T3 peptide: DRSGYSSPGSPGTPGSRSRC
Nature of the assay: ELISA, hybridoma medium on plates coated with the unconjugated immunising peptide. Background: In an ELISA, binding on a coated surface is turned into a signal by an enzyme label.

The target in assay [4] is T4, T205A 0N/3R human tau phosphorylated in vitro with p42 MAPK or GSK3β (human, UniProt P10636 2-758, phosphorylated in vitro with p42 MAPK or with GSK3β; sites not stated).
T4 construct: Two preparations, one for each kinase; also called phosphorylated T205A tau
T4 sequence (P10636 other isoform, or with tags, fused parts or gaps T205A T205A limits assumed): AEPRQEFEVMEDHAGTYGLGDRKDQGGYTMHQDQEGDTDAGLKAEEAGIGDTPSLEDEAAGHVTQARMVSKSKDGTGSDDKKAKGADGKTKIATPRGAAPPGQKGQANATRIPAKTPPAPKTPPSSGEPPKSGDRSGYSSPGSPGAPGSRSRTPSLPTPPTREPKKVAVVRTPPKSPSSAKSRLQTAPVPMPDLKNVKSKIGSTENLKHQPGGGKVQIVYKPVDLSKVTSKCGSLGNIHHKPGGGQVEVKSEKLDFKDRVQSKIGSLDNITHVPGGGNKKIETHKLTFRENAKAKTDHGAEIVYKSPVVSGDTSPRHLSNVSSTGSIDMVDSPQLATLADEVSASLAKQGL
Briefly: immunoblot, recombinant 0N/3R tau phosphorylated in vitro. The protocol:
as §1, §2, §3

Assay [5] addresses T5, full-length S396A 2N/4R human tau phosphorylated in vitro with GSK3β (human, UniProt P10636 2-758, phosphorylated in vitro with GSK3β; sites not stated).
T5 construct: Recombinant, E. coli BL21; also called S396A tau
Nature of the assay: immunoblot, recombinant tau phosphorylated in vitro. The protocol:
as §2
(§4) To determine the specificity of these monoclonal antibodies, full-length WT, S396A and 5404A 2N/4R human tau were in vitro phosphorylated with known tau kinases (p42 MAPK or GSK3β) and used these tau proteins for immunoblotting analysis (FIG. 1).

Assay [6] addresses T6, full-length S404A 2N/4R human tau phosphorylated in vitro with GSK3β (human, UniProt P10636 2-758, phosphorylated in vitro with GSK3β; sites not stated).
T6 construct: Recombinant, E. coli BL21; also called S404A tau; 5404A
Described as above. The protocol:
as §2, §4

Changes are numbered by the printed parent chain.

T5 sequence (P10636 other isoform, or with tags, fused parts or gaps S396A S396A limits assumed): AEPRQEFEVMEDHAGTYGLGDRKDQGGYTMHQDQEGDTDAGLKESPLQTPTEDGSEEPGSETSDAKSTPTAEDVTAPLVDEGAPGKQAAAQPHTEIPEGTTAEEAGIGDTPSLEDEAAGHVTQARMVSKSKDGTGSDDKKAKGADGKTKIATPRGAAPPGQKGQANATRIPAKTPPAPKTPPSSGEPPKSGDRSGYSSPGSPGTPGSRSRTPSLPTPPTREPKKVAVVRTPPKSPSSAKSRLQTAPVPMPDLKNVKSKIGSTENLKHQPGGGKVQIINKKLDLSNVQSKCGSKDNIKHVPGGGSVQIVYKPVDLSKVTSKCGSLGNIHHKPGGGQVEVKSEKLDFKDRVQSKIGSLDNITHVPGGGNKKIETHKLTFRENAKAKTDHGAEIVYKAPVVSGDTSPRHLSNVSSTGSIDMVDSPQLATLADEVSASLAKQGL
T6 sequence (P10636 other isoform, or with tags, fused parts or gaps S404A S404A limits assumed): as the sequence (P10636 other isoform, or with tags, fused parts or gaps S396A S396A limits assumed) above, with A395S, S403A counted along it
T1 sequence (P10636 other isoform, or with tags, fused parts or gaps limits assumed): as the sequence (P10636 other isoform, or with tags, fused parts or gaps T205A T205A limits assumed) above, with A146T counted along it
T2 sequence (P10636 other isoform, or with tags, fused parts or gaps limits assumed): as the sequence (P10636 other isoform, or with tags, fused parts or gaps T205A T205A limits assumed) above, with A146T counted along it

B1: 2D1 (antibody, V domains shown)
VH: EVKLVESGGGLVQPGGSLRLSCATSGFTFTDFSMNWVRQPPGKALEWLGCVRDRAEGYTTEYSASVQGRFTISRDNSQSILYLQMNTLRPEDSATYYCARERAFAYWGQGTLVTVSA
VL: DIVMSQSPSSLAVSAGEKVTMSCKSSQSLLYSRNQKNYLAWYQQRPGQSPKLLIYWASSRESGVSDRFTGSGSGTDFTLTISSVKADDLAVYYCQQYYKSPLTFGAGTKLELKR
notes: also called clone 2D1
Regarding B1, the binding result in assay [1], in assay [2] and in assay [3] was “binds” each time.

B2: 7F2 (antibody, V domains shown)
VH: QVQLQQSGAELVQPGGSMKLSCVASGFTFSNYWMNWVRQSPETGLEWVAEIRLKSYNYATHYAESVTGRFTISRDDSKNRVYLQMNNLGPDDTGIYYCTTGGAYHPFDYWGQGTTLTVSS
VL: EIVLTQSIPSLTVSAGERVTINCKSNQNLLWSGNQRYCLVWHQWKPGQTPTPLITWTSDRYSGVPDRFIGGGSVTDFTLTISSVQAEDVALYFCQHHLHIPPWTFGGGTKLEIKR
notes: also called clone 7F2
For B2, in assay [4], the binding result is “no binding”.

B3: PHF15 (antibody, V domains shown)
VH: EVQLVESGGGSVKPGGSLKLSCAASGFTFSSYALSWVRQTPEKRLEWVASITSGGSYTYFPDSVKGRFTISRDNAKNTLYLQMSSLRSEDTAMYYCTRPGNYDGAWCAYWGQGTLVTVSS
VL: DILLTQSPAILSVSPGERDSFSCRASQNIGTSIHWYQQRTNGSPRLLIKYASESISGIPSRFSGSGSGTDFTLSVNSVESEDVADYYCQQTKTWPTTFGAGTKLDLK
On to B3, for which the binding result in assay [5] and in assay [6] was “no binding” throughout.

B4: PHF2 (antibody, V domains shown)
VH: B3 VH with L34M, S53R, A75T, N77D, P99Q, A108D, S120A
VL: DILLTQSPAILSVSPGERVSFSCRASQNIGTSIHWYQQRTNGSPRLLIKYTSESISGIPSRFGGSGSGTDFTLSVNGVESEDVADYYCQQTKTWPTTFGAGTKLELKR
Consider B4, for which the binding result in assay [5] and in assay [6] was “no binding” throughout.

B5: 6G12 (antibody, V domains shown)
VH: EVNLEESGGGLVQPGGSMKLSCVASGFTFSDYWMNWVRQSPEKGLEWVAEIRLKSDNFATHYAESVKGRFTISRDDSKSSVYLQTNNLRAEDTGIYYCTLMRGDYGAEFAYWGQGTLAIVSA
VL: DIVMSQSPSSLAVSVGEKVTLTCKSSRSLLYRGNQENFLAWYQQKPGQSPKLLIYWASTRESGVPDRFTGSGSGTDFTLTINSVKAEDLAVYYCQQYYTYPYTFGGGTKLEIKR
Regarding B5, the binding result in assay [4] is on record as “no binding”.

B6: 10G12 (antibody, V domains shown)
VH: B2 VH with Q1E, Q3K, Q5E, Q6E, A9G, E10G
VL: B5 VL with L21M, R27Q, G33N, E36K, F38Y, N82S
notes: also called 10G2
In the case of B6, the binding result in assay [4] is “no binding”.
